Laboratory results as given in IntAct's records for PubMed 18794898.

B1: Indian hedgehog protein (Mus musculus), P97812 (parent)
chain: MSPAWLRPRLRFCLFLLLLLLVPAARGCGPGRVVGSRRRPPRKLVPLAYKQFSPNVPEKTLGASGRYEGKIARSSERFKELTPNYNPDIIFKDEENTGADRLMTQRCKDRLNSLAISVMNQWPGVKLRVTEGWDEDGHHSEESLHYEGRAVDITTSDRDRNKYGLLARLAVEAGFDWVYYESKAHVHCSVKSEHSAAAKTGGCFPAGAQVRLENGERVALSAVKPGDRVLAMGEDGTPTFSDVLIFLDREPNRLRAFQVIETQDPPRRLALTPAHLLFIADNHTEPAAHFRATFASHVQPGQYVLVSGVPGLQPARVAAVSTHVALGSYAPLTRHGTLVVEDVVASCFAAVADHHLAQLAFWPLRLFPSLAWGSWTPSEGVHWYPQMLYRLGRLLLEESTFHPLGMSGAGS
partner: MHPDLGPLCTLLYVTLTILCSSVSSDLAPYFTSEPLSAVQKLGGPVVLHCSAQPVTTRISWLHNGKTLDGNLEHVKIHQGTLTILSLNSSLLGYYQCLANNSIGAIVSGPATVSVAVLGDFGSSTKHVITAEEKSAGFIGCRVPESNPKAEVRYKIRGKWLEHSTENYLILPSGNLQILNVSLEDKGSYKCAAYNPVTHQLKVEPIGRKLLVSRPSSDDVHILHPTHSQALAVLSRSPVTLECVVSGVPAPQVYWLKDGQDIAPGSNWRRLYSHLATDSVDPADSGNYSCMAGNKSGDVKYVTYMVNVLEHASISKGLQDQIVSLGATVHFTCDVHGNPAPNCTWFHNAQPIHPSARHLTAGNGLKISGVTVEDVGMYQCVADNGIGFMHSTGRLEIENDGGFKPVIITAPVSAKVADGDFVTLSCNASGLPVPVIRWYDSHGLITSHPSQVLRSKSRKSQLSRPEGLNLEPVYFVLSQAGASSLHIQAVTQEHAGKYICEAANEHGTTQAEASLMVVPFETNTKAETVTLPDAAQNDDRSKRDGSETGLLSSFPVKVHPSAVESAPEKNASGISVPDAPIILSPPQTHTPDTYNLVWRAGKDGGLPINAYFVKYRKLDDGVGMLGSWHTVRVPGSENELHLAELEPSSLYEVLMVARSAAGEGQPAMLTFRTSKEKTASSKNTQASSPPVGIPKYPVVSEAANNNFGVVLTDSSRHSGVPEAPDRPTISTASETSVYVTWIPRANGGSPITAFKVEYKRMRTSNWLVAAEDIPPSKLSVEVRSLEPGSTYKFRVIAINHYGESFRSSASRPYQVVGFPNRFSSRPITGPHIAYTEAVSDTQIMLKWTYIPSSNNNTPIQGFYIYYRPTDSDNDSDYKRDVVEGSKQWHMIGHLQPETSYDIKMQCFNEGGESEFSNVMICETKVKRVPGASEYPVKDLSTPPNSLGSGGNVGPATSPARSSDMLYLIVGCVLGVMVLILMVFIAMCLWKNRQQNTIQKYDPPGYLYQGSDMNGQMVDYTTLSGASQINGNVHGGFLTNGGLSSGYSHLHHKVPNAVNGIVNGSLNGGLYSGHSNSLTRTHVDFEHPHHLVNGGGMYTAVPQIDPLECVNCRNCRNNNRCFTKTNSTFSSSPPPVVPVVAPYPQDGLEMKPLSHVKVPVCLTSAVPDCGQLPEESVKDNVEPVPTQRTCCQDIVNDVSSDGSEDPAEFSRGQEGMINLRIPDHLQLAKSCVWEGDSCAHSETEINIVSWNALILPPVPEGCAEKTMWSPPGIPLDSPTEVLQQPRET

Variants of: B1
Conditions: with cdon_human CDON

effect of a mutation on the interaction | Variant
disrupting interaction | E131K
